Assay results as given in the nanobody polyreactivity screen of Harvey et al. (2022).

Test: yeast display, Sf9 membrane polyspecificity reagent, FACS + sequencing; frameworks hold sequencing errors
How it was run: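 In a synthetic yeast display library (Saccharomyces cerevisiae BJ5465), nanobody expression was induced with galactose for 36–48 hours. FACS gates were set low and high (top ~1%) using anti-HA fluorescence for expression and streptavidin fluorescence for binding of the Sf9 membrane reagent. Each polyreactivity label is drawn from the gate of origin.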

| Sequence | polyreactivity (PSR sort gate) |
| --- | --- |
| QVQLVESGGGLVQAGGSLRLSCAASGSTFPVYAMGWYRQAPGKERELVATISYSGGSTNYADSVKGRFTISRDNAKNTVYLQMNSLKPEDTAVYYCAKRYKRYVYWRSHGDYNYWGQGTQVTVSS | high polyreactivity |
| QVQLVESGGGLVQAGGSLRLTCAASGSIFYRYVMGWYRQAPGKEMELVAVISGSGGNTYYADSVKGRFTISRDNAKNTVYLQRNSLTPDDTAVYYCAASWYFLPTQTRPYYGYYYWGQATQVTVSS | high polyreactivity |
| QVQLVESGGGLVQAGGSLRLSCAASGSTFRAYAMGWYRQAPGKEREFVADISWSGGSTYYADSVKGRFTISRDNAKNTVYLQMNSLKPEDSAVYYCAAEAAPLIIVTYDYWGQGTQVTVSS | low polyreactivity |
| QVQLVESGGGLVQAGGSLRLSCAASGRILTGYAMGLYRQAPGKEREFVASITGSGAITNYADSVKGRFTITRDNAKNTVYLQMNSLKPEDTAVYYCARGYGWWLGYSSRYDYWGQGTQVTVSS | high polyreactivity |
| QVQLVETGGGLVQAGGSLRLSCAASGFTFASYAMGWYRQAPGKERELVAAITWGTGTTSYADSVKGRFTISRDNAKNTVYLQMNSLKPEDTAVYYCATRYRQITYRRRYDYWGQGTQVTVSS | low polyreactivity |
| QVQLVESGGGLVQAGGSLRLSCAASGRTFQRNAMGLYRQEPGKERELVAAISTRGGSTYYADSVKGRFTISRDNAKNTVYLQMNSLKPEDTAVYYCAKDPTLTRGYKEGGGYDYLGQGTQVTVSS | high polyreactivity |
| QVQLVESGGGLVQAGGSLRLSCAASGFIFRGNAMGWYRQAPGKERELVAAISKSGGRTYYADSVKGRFTISRDNAKNTVYLQMNSLKPEDTAVYYCNVLRLGLGRESDSWGQGTQVTVSS | high polyreactivity |
| QVQLVESGGGLVQAGGSLRLSCAASGSIFPFYAMGWYRQAPGKERELVAAINYSAGSTYYADSVKGRFTISRDNAKYTVYLQMNSLKPEDTAVYYCAKEVSAYEMDYWGQGTQVTVSS | low polyreactivity |
| QVQLVESGGGLVQAGGSLRLSCGATGTTFYYYAMGWYRQAPGKERELVPGINTSGGNTYYADSVKGRFTISRDNAKNTVYLQMNSLKPEDTAVYYCAVEGGSLHYAWYLWGYRSGGEYWGQGTQVTVSS | high polyreactivity |
| QVQIVESGGGLFQAGGILRLSCAASGLTLFRDAMGWYRQAPGKERELVAAIDYGGGTYYADSVKGRFTISRDNAKTTVNLQMNRLKVEDTAVYYCAVEPEYKYYEGDFWGQGTQVTVSS | low polyreactivity |
| QVQHVESAAGLVQAGGSLRLTCAASGSIFRVYTMGWSRQAPGKERELVAAISRSGGRTYYADSVKGRFTISRDNAKNTVYLQMNSLKPEDTAVYYCAKRGRVTYPYYYWGQGTQVTVSS | high polyreactivity |
| QVQLVESGGGLVQEGGSLRLSCAASGSTFFTYAMGWYRQAPGKERELVAAISSSGGSTYYADSVKGRFTISRDNAKNTVYLQMNSLIPEDTAVDYCNAKLYLPYDPTDEYDYWGQGTQVTVSS | low polyreactivity |
| QVQLVESGGGLVQAGGSLRLSCAASGRIFDTNVMGWYRQAPGKERELVAALSYSGGSTYYADSVKGRFTISRDNAKNTVYLQMNSLKPEDTAVYYCAAQYWQGDYDYRGQGTQVTVSS | high polyreactivity |
| QVQLVESGGGLVQAGGSLRLSCAASGGIFSAYSMGWYRKAPGKERELVASITTDGGITYYADSVKGRFTISRDNAKNTVYLQMNSLKPEDTAVYYCAVLQYYYPYYYWGQGTQVTVSS | low polyreactivity |
| LVQLVESGGGLVQAGGSLRLSCAASGSICNANAMGWYRQAPGKERELVAGIRSGSSTNYADSVKGRVTISRDNAKNTVYLQMNSLKPEDTPVYYCATEGYWVYGFDDEYWGQGTQVTVSS | low polyreactivity |
| QVQLVESGGGLVQAGGSLRLSCAASGRIFGTNAMGWYIQAPGKERELVADITSGGSTNYADSVKGRFTISRDNAKNTVYLQMNSLKPEDTAVYYCAADVIGDLRWYRDEYWGQGTQVTVSS | low polyreactivity |
| QVQLVESGGGLVQAGGSLRLSCPASGRILYLNVLGWYRQEPGKERELVASITVSGGITYYADSVKGRFTISRDNAKNTVYLQMNSLKPEDTAVYYCAVDAYPPFFYFTSVWFSYDYWGQGTQVTVSS | low polyreactivity |
| QVQLVESGRGLVQAGGSLRLSCAASGITFRYYAMGWYRPAPGKERELVAAITRGGRTNYADSVKGRFTISRDNAKNTVYLQMNSLKPEDTAVYYCATGRDSNFGNSYYYWGQGTQVTVSS | high polyreactivity |
| QVQLVESGGGLVQAGGSLRLSCAASGRIFLPYAMGWYRQAPGKERELVAAITQSGVITSYADSVKGRFTISRDNAKNTVYLQMNSLKPVDTAVYYCATVRTVIVFRFPYSYGYWGQGTQVTVSS | high polyreactivity |
| QVQLVESGGGLVQAGGSLRLICAASGSTYHYAMGWYRQAPGKERELVASITWRGDTTYYADSVKGRFTISRDNAKYNVYLQMNSLKPEDTAVYYCAAYHFSFGWIRVDYWGQGTQVTVSS | high polyreactivity |
| QVQLVESGGGLVQAGVSLRLSCAPSGRTFIYYAMGWYRQAPGKERELVATINGITGSTYYADSVKGRFTNSRDNAKNTVYLQMNSLKPEDTAVYYCAKVPRKYRAWMDYWGQGTQVTVSS | high polyreactivity |
| QVQLVESGGGLVQAGGSLRLSCAASGRTFRTNVMGWYRQAPGKERELVAAISKRGGSTYYADSVKGRFTISRDNAKYTVYLQMNILNPEDTAGYYCAAVFSPYYDHQGDYWGQGTQVTVSS | high polyreactivity |

| Sequence | polyreactivity (PSR sort gate) |
| --- | --- |
| QVQIVESGGGLVQPGCSLRLSCAASGRIFYVYAMGWYRQAPGTEWELVASITNGGRTNYADSVKGRFTISRDNAKNTFYLQMNSLKPEDTAVYYCATAASNYLDYVGKYRYDYWVQGTQVTVSS | low polyreactivity |
| QVQLVESGGGLVQAGGSLRLSCAASGRTFFKNALGWYRQAPGKERELVASISSRSGTTYYADSVKGRFTISRDNAKNTVYLQMNSLKPEDTAVYYCAASRNRYSYGYWGQGTQVTVSS | high polyreactivity |
| QVQLVESGGGLVQAGGSLRLSCAASGSIFGINAMGWYRQAPGKERELVAAITWSGGSTFYADSVKGRFTISRDNAKNTVYLQMTRLKPEDTAVYYCAADSGREPKGPSRLTYWGQGTQVTVSS | high polyreactivity |
| QVQLVESGAALVQAGGSLRLSCAASGRTFWFNAMGWYRQPPGKERELVASISLSVGSTYYADSVKGRFTISRDNAKNTVYLQMNSLKAEDTAVYNCAADQTVHISSYDYWGQGTQVTVSS | low polyreactivity |
| QVQLVESGGGLVQAGGSLRLSCAASGSIFNTIALGWYRQAPGKESELVASISSDGGTNYADSLKGRFTISRDNAKNTVYLQMNRLKPEDTAVYACATTQEYSGQRTPGYDYWGQVTQVTVSS | low polyreactivity |
| QVQHVESGGGLVQAGGSLRLSCAASGRTFYSYAMGWYRQAPGKERELVAAISGRGGRTYYADSVKGRFTISRDNAKNTVYLQMNSLKPEDSAVYFCAKGGYAIRYYGFDYWGQGTQVTVSS | high polyreactivity |
| QVQLVESGGGLVQAGGSLRLSCAASGSIFGGYTMGWYRQAPGKERELVAAISARGGNTYYADSVKGRFTISRDNAKNTVYLQMNSLKPEDTAVYYCAKVRYTQSYRVYGYWGQGTQVTVSS | high polyreactivity |
| QVQLQESGSGLVQAGGSLRLSCAASGNISQYNDIGWYRQAPGKEREPVATINSGSITYYADSVKGRLTISRDNAKNTVYLEMNSLKPEDTAVYYGAVKQHGFVYLEYWGQGTQVTVSR | high polyreactivity |
| QVQLVESGGGLVQAGGSLRLSCAASGSTYYYAMGWSRQAPGKERELVAAISSSSGSTYYADSVKGRFTISRDNAKNTVYLQMNSLKPEDTAVYYCAAEGYKGWVYEYDYWGQGTQVTVSS | low polyreactivity |
| QVQLVESGGGLVQAGGSLRLSCAASGFIFDSNAMGWYRQAPGKERELVAAISRRGGSTYYADSVKGRFTISRDNAKNTVYLQMNSLKPEDTAVYYCNAEYGSHVKYGYWGQGTQVTVSS | high polyreactivity |
| QVQLVESGGGLVQAGGSLRLSCAASGSTFDYYAMGWYRQAPGKERELVAAITGTGGSTYYADSVKGRFTISRDNAKNTVYLQMNSLKPEDTAVYYCAADTYLGWSYYWGQGTQVTVSS | high polyreactivity |
| QVQLVESGGGLVQAGGSLRLSCAASGSIFYSNVMGWYRQATGKERELVAAIRYSGVGTYYADSVKGRFTISRDNAKNTVYLQMNSLKPEDTAVYYSNAVTKVGYLRRRDYWGQGTQVTVSS | low polyreactivity |
| QVQLVESGGGLVQAGGSLRLSCAASGRIFGSYAMGWYRQAPGKERELVAAISGGGSTNYADSVKGRFTISRDNAKNTVYLQMNSLKPEDSAVYYCTADRGFAVIVLYGYWGQGTQVTVSS | low polyreactivity |
| QVQLVESGGGLVQAGGSLRLSCAASGFIFTYYAMGWYRQAPGKERELVAAISWDGGSTYYADSVKGRFTISRDNAKNTVYLQMNSLKPEDTAVYYCNRDLYGYVRYDYWGQGTQVTVSS | low polyreactivity |
| QVQLEESGGGLVQAGGSLRLSSAASGRIFGGYAMGWYRQAPGKEREMVAAITQSGGSTYYADSVKGRFTISRDNAKNTVYLQMNSLTAEDTAVYYCNARLARGYWTPGKERPMEYWGQGTQVTVSS | low polyreactivity |
| QVQLVESGGGLVQAGGRLRLSCAASGRTFLRYAMGWYRQAPGKERELVAAISVSGGNTYYADSVKGRFTISRDNAKNTVYLQMNSLKPEDTAVYYCNKARLAAVFSYPYGYWGQGTQVTVSS | low polyreactivity |
| QVQLVESGGGLVQAGGSLRLSSAASGRIFKIYPMVWYRQAPGKERELVAAISGRGGSTYYADSVKGRFTISRDNAKNTVYLQMISLKPEDTAVYYCAAVGYGFSAYSTYDYWGQGTQVTVSS | high polyreactivity |
| QVQLVESGGGLVHAGGSLRLSCAASGFILTGNAMGWYRQAPGKERELVAAITSGGRTYYADSVKGRFTISRDNAKNTVYLQMNSLKPEETAVYYCAARRRWSQTPFDYWGQGTQVTVSS | high polyreactivity |
| QVQLVESGGGLVQAEGRLRLSCAASGRIFPHYAMGWYRQAPGKERELVAAISRSGVSTYYADSVKGRFTISRDIAKNTVYLQMNSLKPEDTAVYYCASRSYILGWRYDYWGQGTQVTVSS | high polyreactivity |
| QFQLVESGGGLVQAGGSIRLSCAASGSTFTIYAMGWYRQAPGKERELVAAISGTGGTKYADSVKGRFTISRDNAKNTVYLQMTSLKPEDTAVYYCAARYMLWDGDSWTEFDYWGQGTQVTVSS | low polyreactivity |
| QVQLVESGGGLVQAGGSLRLSCAASGRTFGAYAMGWYRQAPGKERELVATITVSGGSTYYADSVKGRFTISRDNAMNTVSLQLNSLKPEDTAVYYCATEFYEEYWGQGTQVTVSS | low polyreactivity |
